# Target: SOX6, full-length, yeast two-hybrid fusion (UniProt P35712)
# Test: yeast two-hybrid (β-galactosidase liquid assay)
# Conditions: S. cerevisiae Y187; SOX6 in pGBT9 (BD), SHOX2 mutant in pACT2 (AD); CRPG as substrate; parent: est. 100; read off a plot
# Chain of SOX6, full-length, yeast two-hybrid fusion (P35712 whole entry, the tested form may be a part): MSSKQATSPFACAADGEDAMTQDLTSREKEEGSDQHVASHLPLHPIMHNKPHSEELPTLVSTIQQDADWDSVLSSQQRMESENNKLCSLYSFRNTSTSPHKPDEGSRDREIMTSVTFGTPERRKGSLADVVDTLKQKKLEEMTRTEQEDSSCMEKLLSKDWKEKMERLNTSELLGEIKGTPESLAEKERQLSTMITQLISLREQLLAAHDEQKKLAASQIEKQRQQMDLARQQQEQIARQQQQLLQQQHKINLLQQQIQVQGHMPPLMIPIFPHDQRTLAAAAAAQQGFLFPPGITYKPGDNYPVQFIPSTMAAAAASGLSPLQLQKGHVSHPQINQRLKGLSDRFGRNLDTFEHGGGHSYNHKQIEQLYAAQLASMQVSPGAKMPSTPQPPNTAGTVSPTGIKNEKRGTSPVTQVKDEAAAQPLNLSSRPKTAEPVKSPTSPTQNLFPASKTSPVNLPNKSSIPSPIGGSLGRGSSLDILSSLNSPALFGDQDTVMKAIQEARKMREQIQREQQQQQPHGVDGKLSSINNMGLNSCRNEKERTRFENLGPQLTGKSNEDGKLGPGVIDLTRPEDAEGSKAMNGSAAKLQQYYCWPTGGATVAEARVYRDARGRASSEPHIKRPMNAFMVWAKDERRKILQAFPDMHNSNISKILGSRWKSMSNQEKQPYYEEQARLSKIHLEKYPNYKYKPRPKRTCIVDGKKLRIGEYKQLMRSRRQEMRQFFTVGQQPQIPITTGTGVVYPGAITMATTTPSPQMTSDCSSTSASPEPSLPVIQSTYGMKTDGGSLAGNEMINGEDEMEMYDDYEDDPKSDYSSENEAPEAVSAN
# Chain of SHOX2a (called SHOX2 in the paper), full-length, yeast two-hybrid fusion, O60902-1 R319P (O60902 whole entry R319P, the tested form may be a part): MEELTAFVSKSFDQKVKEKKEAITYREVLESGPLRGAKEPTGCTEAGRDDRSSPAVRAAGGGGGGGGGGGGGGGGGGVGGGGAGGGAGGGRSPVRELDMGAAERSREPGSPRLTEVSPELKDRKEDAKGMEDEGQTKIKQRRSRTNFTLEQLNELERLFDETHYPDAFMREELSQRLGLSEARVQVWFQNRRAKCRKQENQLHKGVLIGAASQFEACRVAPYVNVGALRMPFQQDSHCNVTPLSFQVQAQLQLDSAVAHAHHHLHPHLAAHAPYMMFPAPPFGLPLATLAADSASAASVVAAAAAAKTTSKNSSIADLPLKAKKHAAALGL
# Chain of SHOX2a (called SHOX2 in the paper), full-length, yeast two-hybrid fusion, O60902-1 A193P (O60902 whole entry A193P, the tested form may be a part): as the sequence (O60902 whole entry R319P, the tested form may be a part) above, with A193P, P319R counted along it
# Chain of SHOX2a (called SHOX2 in the paper), full-length, yeast two-hybrid fusion, O60902-1 L155V (O60902 whole entry L155V, the tested form may be a part): as the sequence (O60902 whole entry R319P, the tested form may be a part) above, with L155V, P319R counted along it
# Chain of SHOX2a (called SHOX2 in the paper), full-length, yeast two-hybrid fusion, O60902-1 R196C (O60902 whole entry R196C, the tested form may be a part): as the sequence (O60902 whole entry R319P, the tested form may be a part) above, with R196C, P319R counted along it
# Chain of SHOX2a (called SHOX2 in the paper), full-length, yeast two-hybrid fusion, O60902-1 K139E (O60902 whole entry K139E, the tested form may be a part): as the sequence (O60902 whole entry R319P, the tested form may be a part) above, with K139E, P319R counted along it
# Chain of SHOX2a (called SHOX2 in the paper), full-length, yeast two-hybrid fusion, O60902-1 R218Q (O60902 whole entry R218Q, the tested form may be a part): as the sequence (O60902 whole entry R319P, the tested form may be a part) above, with R218Q, P319R counted along it
# Chain of SHOX2a (called SHOX2 in the paper), full-length, yeast two-hybrid fusion, O60902-1 A269D (O60902 whole entry A269D, the tested form may be a part): as the sequence (O60902 whole entry R319P, the tested form may be a part) above, with A269D, P319R counted along it
row,percent of parent (% Interaction with SOX6),Substance
1,8,"SHOX2a (called SHOX2 in the paper), full-length, yeast two-hybrid fusion, O60902-1 A193P"
2,87,"SHOX2a (called SHOX2 in the paper), full-length, yeast two-hybrid fusion, O60902-1 A269D"
3,44,"SHOX2a (called SHOX2 in the paper), full-length, yeast two-hybrid fusion, O60902-1 K139E"
4,10,"SHOX2a (called SHOX2 in the paper), full-length, yeast two-hybrid fusion, O60902-1 L155V"
5,29,"SHOX2a (called SHOX2 in the paper), full-length, yeast two-hybrid fusion, O60902-1 R196C"
6,89,"SHOX2a (called SHOX2 in the paper), full-length, yeast two-hybrid fusion, O60902-1 R218Q"
7,80,"SHOX2a (called SHOX2 in the paper), full-length, yeast two-hybrid fusion, O60902-1 R319P"

# Reference: publication PMC3885427
